Laboratory results from US20040076995A1, “Nurr1 transcription factor 1-box mutants having monomeric transcriptional activation activity” (priority 2001, published 2004).

Columns and labels:
[1] = tested on: Nurr1-RXR heterodimer; assay: Nurr1-RXR heterodimer-mediated transactivation, βRE luciferase reporter in JEG3 cells; type: cell-based, human; details: βRE-tk luciferase reporter, RXR ligand SR11237 1 μM, effect of the mutation vs wild-type Nurr1
Method: The wild-type and mutated Nurr1 derivatives were transfected in JEG3 cells. The ability to transactivate was assessed using a luciferase reporter gene driven by three copies of the hRARβ2 promoter RARE (βRE) upstream of a thymidine kinase promoter.
The influence of the I-box mutations on Nurr1 transcriptional activity and on the ability to interact with RXR was examined as described by Perlmann and Jansson 1995, Zetterström et al. 1996, and Castro et al. 1999. Nurr1-RXR heterodimer-mediated transactivation was studied in human chorion carcinoma JEG3 cells. The cells were maintained in minimum essential medium supplemented with 10% fetal calf serum. Transfections were performed in quadruplicates in 24-well plates using the calcium phosphate precipitation method. The cells were plated 24 h prior to the transfection. Each well was transfected with 100 ng of the expression vector for the Nurr1 variants, 100 ng of a reporter plasmid, and 200 ng of βgalactoside plasmid that was used as an internal control for transfection efficiency. The luciferase reporter used was driven by three copies of the retinoid acid response element (RARE) of the human retinoid acid receptorβ2 (hRARβ2) gene promoter (βRE) upstream of the thymidine kinase promoter. 6-8 hours after transfection, the cells received fresh medium supplemented with 10% charcoal-stripped fetal calf,serum and RXR ligand (SR11237;1 μM). The cells were harvested 24 hours late and lysed. The cells extracts were assayed for luciferase and βgalactosidase activity. The ability of the Nurr1 mutants to interact with RXR was examined using the mammalian two-hybrid assay. The ligand-binding domains (amino acids 353-598; LBD) of both wild-type and mutated Nurr1 variants were cloned in frame with the yeast Gal4 DNA-binding domain (amino acids 1-147) in the pCMX-Gal4 expression vector (Perlmann and Jansson 1995). JEG3 cells were cotransfected with pCMX-Gal4-Nurr1-LBD derivatives and pCMX-VP16-RXR containing the herpes simplex VP16 trans-activation domain followed by the complete coding sequence of human RXRα. A reporter gene with four copies of the Gal4-binding sites was used.

[2] = tested on: NGFI-B response element (NBRE) reporter; assay: Monomeric reporter gene activation, NBRE reporter in 293 cells (full-length receptor); type: cell-based, human; details: three copies of NBRE reporter, effect of the mutation vs wild-type Nurr1
Method: The monomeric activity was examined in 293 cells. The full-length receptor derivatives were studied using a reporter gene regulated by three copies of the NGFI-B binding site (NBRE; FIG. A).
The ability of the mutants to activate reporter gene expression as monomers were studied in human embryonic kidney 293 cells. The cells were maintained in Dulbecco's modified Eagles medium with 10% fetal calf serum. Transfections were carried out as with JEG3 cells except that a reporter regulated by three copies of the NGFI-B (nerve growth factor inducible-B)response element (Wilson et al., 1991) (NBREs) was used. The transcriptional activities of the mutated ligand-binding domains were assessed as fusions to the Gal4 DNA-binding domain and a reporter gene with four copies of the Gal4-binding sites was used. All the transfection experiments were performed in quadruplicate dishes and each experiment has been repeated at least twice with essentially identical results. The results of a representative experiment are shown.

[3] = target: T1, VP16-RXR (herpes simplex VP16 trans-activation domain followed by the complete coding sequence of human RXRα) (herpes simplex; human, UniProt P19793 1-462); assay: mammalian two-hybrid assay, JEG3 cells
T1 construct: Two-hybrid prey, expressed in JEG3 cells; also called pCMX-VP16-RXR
T1 sequence: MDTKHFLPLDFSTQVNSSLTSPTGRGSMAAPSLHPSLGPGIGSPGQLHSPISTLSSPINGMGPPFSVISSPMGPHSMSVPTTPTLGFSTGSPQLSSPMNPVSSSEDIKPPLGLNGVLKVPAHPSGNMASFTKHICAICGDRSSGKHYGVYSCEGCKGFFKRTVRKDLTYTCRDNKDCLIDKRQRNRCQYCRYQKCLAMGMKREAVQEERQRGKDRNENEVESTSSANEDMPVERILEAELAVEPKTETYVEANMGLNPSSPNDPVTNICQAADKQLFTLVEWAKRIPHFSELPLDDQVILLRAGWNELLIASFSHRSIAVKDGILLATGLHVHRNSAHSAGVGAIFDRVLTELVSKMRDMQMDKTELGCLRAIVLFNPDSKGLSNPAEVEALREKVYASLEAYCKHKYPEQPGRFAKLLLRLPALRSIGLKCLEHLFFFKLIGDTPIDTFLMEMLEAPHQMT

[4] = target: Nurr1 P560A + RXR (Mus musculus / Homo sapiens?, UniProt Q06219;P19793 Q06219:1-598,P19793:1-462, Nurr1 P560A); assay: EMSA; no heterodimer on DNA; monomeric binding retained; details: label: 32P (Klenow fill-in)
Method: (§1) The DNA-binding experiments were carried out as described by Castro et al. 1999. Briefly, Nurr1 and RXR proteins for gel mobility shift assays were produced by coupled in vitro transcription and translation in reticulocyte lysates according to the manufacturer's instructions (TNT Quick Coupled Trans cription/Translation System™; Promega). The proteins were incubated in a binding buffer containing 10 mM Tris (pH 8.0), 40 mM KCI, 0.05% NP-40, 6% glycerol, 1 mM DTT, 0.2mg poly(dI-dC) and protease inhibitors. βRE-probe (agcttaagg[…]ctcgcat; SEQ ID NO:9) was labelled with ³²P by fill-in reaction using Klenow fragment. After addition of the probe, the reactions were incubated on ice for 20 min. Protein-DNA complexes were resolved by electrophoresis on 4% non-denaturating polyacrylamide gel in 0.5×TBE. After electrophoresis, the gels were dried for autoradiography.

[5] = target: Nurr1 PEL(560-562)AAA + RXR (Mus musculus / Homo sapiens?, UniProt Q06219;P19793 Q06219:1-598,P19793:1-462, Nurr1 P560A,E561A,L562A); assay: as above; details: label: 32P (Klenow fill-in)
Method: as §1

[6] = target: Nurr1 KLL(554-556)AAA (Mus musculus, UniProt Q06219 Q06219:1-598, K554A,L555A,L556A); assay: EMSA; monomeric DNA binding not influenced; betaRE is the only probe described; details: label: 32P (Klenow fill-in)
Method: as §1

[7] = target: Nurr1 P560A (Mus musculus, UniProt Q06219 Q06219:1-598, P560A); assay: as above; details: label: 32P (Klenow fill-in)
Method: as §1

[8] = target: Nurr1 GKL(557-559)AAA (Mus musculus, UniProt Q06219 Q06219:1-598, G557A,K558A,L559A); assay: as above; details: label: 32P (Klenow fill-in)
Method: as §1

[9] = target: Nurr1 PEL(560-562)AAA (Mus musculus, UniProt Q06219 Q06219:1-598, P560A,E561A,L562A); assay: as above; details: label: 32P (Klenow fill-in)
Method: as §1

[10] = target: Nurr1 wild type/RXR heterodimer (Mus musculus / Homo sapiens?, UniProt Q06219;P19793 Q06219:1-598,P19793:1-462); assay: EMSA; heterodimer; 10 mM Tris pH 8.0, 40 mM KCl, poly(dI-dC), on ice; details: label: 32P (Klenow fill-in)
Method: as §1

B1: P560A: mouse Nurr1 I-box mutant, Pro560 substituted by alanine (protein)
chain: MPCVQAQYGSSPQGASPASQSYSYHSSGEYSSDFLTPEFVKFSMDLTNTEITATTSLPSFSTFMDNYSTGYDVKPPCLYQMPLSGQQSSIKVEDIQMHNYQQHSHLPPQSEEMMPHSGSVYYKPSSPPTPSTPSFQVQHSPMWDDPGSLHNFHQNYVATTHMIEQRKTPVSRLSLFSFKQSPPGTPVSSCQMRFDGPLHVPMNPEPAGSHHVVDGQTFAVPNPIRKPASMGFPGLQIGHASQLLDTQVPSPPSRGSPSNEGLCAVCGDNAACQHYGVRTCEGCKGFFKRTVQKNAKYVCLANKNCPVDKRRRNRCQYCRFQKCLAVGMVKEVVRTDSLKGRRGRLPSKPKSPQDPSPPSPPVSLISALVRAHVDSNPAMTSLDYSRFQANPDYQMSGDDTQHIQQFYDLLTGSMEIIRGWAEKIPGFADLPKADQDLLFESAFLELFVLRLAYRSNPVEGKLIFCNGVVLHRLQCVRGFGEWIDSIVEFSSNLQNMNIDISAFSCIAALAMVTERHGLKEPKRVEELQNKIVNCLKDHVTFNNGGLNRPNYLSKLLGKLAELRTLCTQGLQRIFYLKLEDLVPPPAIIDKLFLDTLPF
ability of Nurr1 to promote RXR-mediated transactivation [1]: abolished | ability to activate reporter gene expression as monomers (monomeric activity) [2]: no effect

B2: Gal4 DNA-binding domain fused to Nurr1 ligand-binding domain (amino acids 353-598) KLL(554-556)AAA (other, yeast;mouse, UniProt P04386 1-147, looked up)
chain: MKLLSSIEQACDICRLKKLKCSKEKPKCAKCLKNNWECRYSPKTKRSPLTRAHLTEVESRLERLEQLFLLIFPREDLDMILKMDSLQDIKALLTGLFVQDNVNKDAVTDRLASVETDMPLTLRQHRISATSSSEESSNKGQRQLTVSQDPSPPSPPVSLISALVRAHVDSNPAMTSLDYSRFQANPDYQMSGDDTQHIQQFYDLLTGSMEIIRGWAEKIPGFADLPKADQDLLFESAFLELFVLRLAYRSNPVEGKLIFCNGVVLHRLQCVRGFGEWIDSIVEFSSNLQNMNIDISAFSCIAALAMVTERHGLKEPKRVEELQNKIVNCLKDHVTFNNGGLNRPNYLSAAAGKLPELRTLCTQGLQRIFYLKLEDLVPPPAIIDKLFLDTLPF
notes: range 1-147;range 353-598; Two-hybrid bait, expressed in JEG3 cells; also called pCMX-Gal4-Nurr1-LBD derivative KLL(554-556)AAA
binding result [3]: no binding

B3: Gal4 DNA-binding domain fused to Nurr1 ligand-binding domain (amino acids 353-598) GKL(557-559)AAA (other, yeast;mouse, UniProt P04386 1-147, looked up)
chain: MKLLSSIEQACDICRLKKLKCSKEKPKCAKCLKNNWECRYSPKTKRSPLTRAHLTEVESRLERLEQLFLLIFPREDLDMILKMDSLQDIKALLTGLFVQDNVNKDAVTDRLASVETDMPLTLRQHRISATSSSEESSNKGQRQLTVSQDPSPPSPPVSLISALVRAHVDSNPAMTSLDYSRFQANPDYQMSGDDTQHIQQFYDLLTGSMEIIRGWAEKIPGFADLPKADQDLLFESAFLELFVLRLAYRSNPVEGKLIFCNGVVLHRLQCVRGFGEWIDSIVEFSSNLQNMNIDISAFSCIAALAMVTERHGLKEPKRVEELQNKIVNCLKDHVTFNNGGLNRPNYLSKLLAAAPELRTLCTQGLQRIFYLKLEDLVPPPAIIDKLFLDTLPF
notes: range 1-147;range 353-598; Two-hybrid bait, expressed in JEG3 cells; also called pCMX-Gal4-Nurr1-LBD derivative GKL(557-559)AAA
binding result [3]: no binding

B4: Gal4 DNA-binding domain fused to Nurr1 ligand-binding domain (amino acids 353-598) PEL(560-562)AAA (other, yeast;mouse, UniProt P04386 1-147, looked up)
chain: MKLLSSIEQACDICRLKKLKCSKEKPKCAKCLKNNWECRYSPKTKRSPLTRAHLTEVESRLERLEQLFLLIFPREDLDMILKMDSLQDIKALLTGLFVQDNVNKDAVTDRLASVETDMPLTLRQHRISATSSSEESSNKGQRQLTVSQDPSPPSPPVSLISALVRAHVDSNPAMTSLDYSRFQANPDYQMSGDDTQHIQQFYDLLTGSMEIIRGWAEKIPGFADLPKADQDLLFESAFLELFVLRLAYRSNPVEGKLIFCNGVVLHRLQCVRGFGEWIDSIVEFSSNLQNMNIDISAFSCIAALAMVTERHGLKEPKRVEELQNKIVNCLKDHVTFNNGGLNRPNYLSKLLGKLAAARTLCTQGLQRIFYLKLEDLVPPPAIIDKLFLDTLPF
notes: range 1-147;range 353-598; Two-hybrid bait, expressed in JEG3 cells
binding result [3]: no binding

B5: betaRE probe (hRARbeta2 promoter RARE) (dsDNA)
DNA 1: AGCTTAAGGGGTTCACCGAAAGTTCACTCGCAT
DNA 2: ATGCGAGTGAACTTTCGGTGAACCCCTTAAGCT
binding result [4]: no binding | binding result [5]: no binding | binding result [6]: binds | binding result [7]: binds | binding result [8]: binds | binding result [9]: binds | binding result [10]: binds
